Data as given in the Human Domainome abundance scans (Beltran et al. 2025).
± gives the uncertainty stated by the source.

B1: Integrator complex subunit 12, residues 155 to 213; numbered along this chain, Q96CB8 (parent)
chain: AMEMGLACVVCRQMMVASGNQLVECQECHNLYHRDCHKPQVTDKEANDPRLVWYCARCT
B2: RNA-binding E3 ubiquitin-protein ligase MEX3C, residues 325 to 391; numbered along this chain, Q5U5Q3 (parent)
chain: GQTTVQVRVPYRVVGLVVGPKGATIKRIQQQTHTYIVTPSRDKEPVFEVTGMPENVDRAREEIEMHI

Variants of: B1
Assay: abundance fitness (aPCA) (normalised: wild type 0, dead -1); higher = more abundant; growth selection in yeast, the domain comes from the species named
Settings: Homo sapiens

Row | Variant | abundance fitness
1 | L6G | -0.034 ± 0.033
2 | L6T | 0.041 ± 0.04
3 | L6C | -0.054 ± 0.037
4 | L6I | 0.007 ± 0.034
5 | L6S | 0.073 ± 0.033
6 | L6W | -0.552 ± 0.066
7 | L6Q | 0.014 ± 0.064
8 | L6F | -0.081 ± 0.036
9 | L6D | 0.075 ± 0.038
10 | L6P | -0.03 ± 0.046
11 | L6Y | -0.063 ± 0.034
12 | L6E | -0.106 ± 0.059
13 | L6A | 0.099 ± 0.038
14 | L6R | -0.08 ± 0.038
15 | L6V | 0.036 ± 0.032
16 | L6K | 0.173 ± 0.054
17 | L6H | 0.038 ± 0.039
18 | L6M | 0.086 ± 0.053
19 | G5F | -0.28 ± 0.035
20 | G5H | 0.026 ± 0.042
21 | G5S | 0.007 ± 0.03
22 | G5L | -0.216 ± 0.038
23 | G5P | -0.053 ± 0.051

Row | Variant | abundance fitness
24 | G5I | -0.205 ± 0.039
25 | G5V | -0.13 ± 0.033
26 | G5R | -0.058 ± 0.035
27 | G5T | -0.045 ± 0.039
28 | G5N | 0.043 ± 0.037
29 | G5E | 0.066 ± 0.067
30 | G5C | -0.143 ± 0.034
31 | G5M | -0.152 ± 0.055
32 | G5K | 0.143 ± 0.053
33 | G5Y | -0.267 ± 0.036
34 | G5A | -0.001 ± 0.036
35 | G5Q | 0.085 ± 0.052
36 | A7Y | -0.144 ± 0.038
37 | A7N | 0.039 ± 0.036
38 | A7C | -0.022 ± 0.04
39 | A7P | 0.069 ± 0.054
40 | A7H | 0.078 ± 0.044
41 | A7E | -0.064 ± 0.068
42 | A7D | -0.027 ± 0.04
43 | A7S | 0.01 ± 0.034
44 | A7T | 0.032 ± 0.04
45 | A7M | -0.069 ± 0.054
46 | A7L | -0.064 ± 0.037

Row | Variant | abundance fitness
47 | A7G | -0.155 ± 0.04
48 | A7I | 0.008 ± 0.039
49 | A7Q | -0.077 ± 0.058
50 | A7W | -0.41 ± 0.078
51 | A7F | -0.172 ± 0.038
52 | V9K | -0.279 ± 0.07
53 | V9Q | 0.051 ± 0.069
54 | V9Y | -0.147 ± 0.035
55 | V9W | -0.45 ± 0.095
56 | V9S | -0.118 ± 0.032
57 | V9R | -0.181 ± 0.04
58 | V9T | -0.02 ± 0.038
59 | V9E | -0.197 ± 0.078
60 | V9A | -0.046 ± 0.044
61 | V9D | -0.248 ± 0.049
62 | V9G | -0.216 ± 0.048
63 | V9P | -0.289 ± 0.045
64 | V9N | -0.223 ± 0.038
65 | V9I | -0.101 ± 0.035
66 | V9F | -0.081 ± 0.035
67 | V9C | 0.049 ± 0.041
68 | V9M | -0.204 ± 0.054
69 | V9L | -0.202 ± 0.034

Row | Variant | abundance fitness
70 | M4C | -0.026 ± 0.036
71 | M4D | -0.06 ± 0.04
72 | M4I | 0.023 ± 0.036
73 | M4T | 0.04 ± 0.041
74 | M4G | -0.044 ± 0.035
75 | M4Y | -0.168 ± 0.036
76 | M4L | -0.027 ± 0.036
77 | M4P | -0.022 ± 0.057
78 | M4Q | -0.055 ± 0.09
79 | M4F | -0.096 ± 0.038
80 | M4W | -0.43 ± 0.064
81 | M4H | 0.065 ± 0.041
82 | M4K | -0.034 ± 0.072
83 | M4V | 0.006 ± 0.033
84 | M4S | 0.045 ± 0.032
85 | M2W | -0.167 ± 0.075
86 | M2F | -0.055 ± 0.036
87 | M2K | -0.013 ± 0.075
88 | M2A | -0.142 ± 0.043
89 | M2G | 0.009 ± 0.032
90 | M2H | -0.136 ± 0.059
91 | M2R | -0.054 ± 0.038
92 | M2C | -0.112 ± 0.04

Row | Variant | abundance fitness
93 | M2P | -0.31 ± 0.075
94 | M2N | -0.112 ± 0.04
95 | M2Y | -0.127 ± 0.044
96 | M2D | -0.185 ± 0.044
97 | M2Q | -0.058 ± 0.12
98 | M2S | 0.065 ± 0.032
99 | M2L | -0.003 ± 0.038
100 | M2T | 0.073 ± 0.045
101 | M2E | -0.046 ± 0.09
102 | M2I | 0.059 ± 0.04
103 | E3H | -0.163 ± 0.039
104 | E3V | -0.119 ± 0.033
105 | E3T | -0.137 ± 0.041
106 | E3R | -0.304 ± 0.037
107 | E3L | -0.321 ± 0.04
108 | E3I | -0.238 ± 0.041
109 | E3G | -0.167 ± 0.034
110 | E3C | -0.168 ± 0.034
111 | E3K | -0.089 ± 0.065
112 | E3Y | -0.222 ± 0.039
113 | E3A | -0.103 ± 0.04
114 | E3D | -0.065 ± 0.037
115 | E3M | -0.232 ± 0.069

Row | Variant | abundance fitness
116 | E3N | -0.056 ± 0.039
117 | E3P | -0.359 ± 0.048
118 | E3F | -0.304 ± 0.038
119 | E3S | -0.038 ± 0.031
120 | E3Q | -0.102 ± 0.071
121 | C8H | -0.901 ± 0.058
122 | C8S | -0.757 ± 0.039
123 | C8Q | -0.71 ± 0.076
124 | C8G | -1.11 ± 0.09
125 | C8M | -1.19 ± 0.11
126 | C8K | -0.874 ± 0.089
127 | C8N | -0.675 ± 0.042
128 | C8E | -0.927 ± 0.12
129 | C8R | -0.841 ± 0.057
130 | C8W | -1.38 ± 0.22
131 | C8F | -1 ± 0.051
132 | C8V | -1.14 ± 0.078
133 | C8P | -0.633 ± 0.054
134 | C8I | -1.04 ± 0.063
135 | C8L | -0.978 ± 0.054
136 | C8T | -0.814 ± 0.058
137 | C8D | -0.787 ± 0.066
138 | A1M | 0.03 ± 0.2

Row | Variant | abundance fitness
139 | A1F | -0.161 ± 0.11
140 | A1G | -0.115 ± 0.044
141 | A1R | -0.061 ± 0.088
142 | A1V | 0.037 ± 0.043
143 | A1N | 0.109 ± 0.086
144 | A1H | 0.245 ± 0.17
145 | A1K | 0.154 ± 0.25
146 | A1T | 0.125 ± 0.068
147 | A1P | -0.581 ± 0.19
148 | A1Y | -0.168 ± 0.13
149 | A1S | 0.046 ± 0.071
150 | A1W | -0.199 ± 0.24
151 | A1I | -0.049 ± 0.18
152 | A1C | -0.099 ± 0.12
153 | V10F | -0.241 ± 0.034
154 | V10C | -0.193 ± 0.041
155 | V10H | -0.161 ± 0.038
156 | V10A | -0.059 ± 0.041
157 | V10G | -0.206 ± 0.042
158 | V10E | -0.11 ± 0.064

Variants of: B2
Assay: as above
Settings: Homo sapiens

Row | Variant | abundance fitness
159 | I67P | -0.773 ± 0.28
160 | I67S | -0.027 ± 0.1
161 | I67Y | 0.476 ± 0.41
162 | I67T | -0.023 ± 0.1
163 | I67K | -0.778 ± 0.36
164 | I67W | 0.289 ± 0.19
165 | I67R | -0.515 ± 0.16
166 | I67V | 0.119 ± 0.094
167 | I67M | -0.635 ± 0.4
